One assay addresses T1, Mushroom tyrosinase (mushroom, UniProt C7FF04 1-392). The experiment in a line: cell-based or functional assay.
T1 sequence (C7FF04 1-392): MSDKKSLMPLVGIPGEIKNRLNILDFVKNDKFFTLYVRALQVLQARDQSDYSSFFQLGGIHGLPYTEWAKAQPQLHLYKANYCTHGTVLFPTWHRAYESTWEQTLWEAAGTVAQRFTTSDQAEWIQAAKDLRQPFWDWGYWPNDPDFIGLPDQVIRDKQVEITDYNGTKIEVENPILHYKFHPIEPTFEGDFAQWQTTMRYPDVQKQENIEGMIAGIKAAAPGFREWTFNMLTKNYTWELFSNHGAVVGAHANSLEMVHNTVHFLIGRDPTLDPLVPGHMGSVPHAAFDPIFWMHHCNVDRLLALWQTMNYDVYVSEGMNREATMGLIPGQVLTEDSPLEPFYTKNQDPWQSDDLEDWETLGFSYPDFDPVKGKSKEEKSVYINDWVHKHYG
On to RRYWYWRR (Synthetic octapeptide) [P18 peptide], for which the “IC50 [µM], mushroom tyrosinase inhibition (dopachrome OD 475 nm, L-tyrosine substrate)” value came out at 282 µM. Take RRVAL [P13 peptide]: the “IC50 [µM], mushroom tyrosinase inhibition (dopachrome OD 475 nm, L-tyrosine substrate)” value turned out to be 2200 µM.

RRFVLL [P14 peptide]: the “IC50 [µM], mushroom tyrosinase inhibition (dopachrome OD 475 nm, L-tyrosine substrate)” value was found to be 1770 µM. The same measure, in the same setting: the value for RRRYWYYR (Synthetic octapeptide) [P17 peptide] was 398 µM; that for RRWWRRYY (Synthetic octapeptide) [P16 peptide] was 238 µM.

The target of a further assay is T1, Mushroom tyrosinase. The assay can be described thus: enzyme kinetics on mushroom tyrosinase, Lineweaver-Burk / nonlinear regression, differs from Table 4. Here is the method:
Tyrosinase inhibitory activity was determined in vitro using L-tyrosine or L-dopa as the substrate following a modified method from Piao, L. Z., Park, H. R., Park, Y. K., Lee, S. K., Park, J. H., and Park, M. K. (2002) Chem Pharm Bull (Tokyo) 50, 309-311. The concentration of enzyme, substrate and inhibitor was denoted as [E], [S] and [I], respectively. The experiment was conducted in a 96-well flat-bottomed plate. Each well contained 80 μl of 0.067 M potassium phosphate buffer (pH 6.8), 40 μl of 5 mg/ml L-tyrosine dissolved in 0.067 M potassium phosphate buffer (pH 6.8), 40 μl of the different concentrations of inhibitors dissolved in the same buffer, and 40 μl of 480 units/ml mushroom tyrosinase solution. The final volume of each well was 200 μl, containing 1 mg/ml [S], 96 units/ml [E] and varying concentrations of [I] ranging from 1 μM to 10 mM. For the negative control wells, the inhibitors were substituted with buffer solution and adjusted to the total volume of 200 μl. HQ served as a positive control to calibrate the assay as a wide range of IC₅₀ values has been previously reported (Neeley, E., Fritch, G., Fuller, A., Wolfe, J., Wright, J., and Flurkey, W. (2009) Int J Mol Sci 10, 3811-3823). The assay mixture was incubated at 37° C. The optical density of the reaction mixtures, which correlates with the amount of dopachrome produced, was measured at 475 nm using a Varioskan microplate reader (Thermo Electron Corporation, San Jose, Calif.) at different time periods. For assessment of the 2nd step of melanin synthesis, we used L-dopa as the substrate and freshly extracted human tyrosinase as previously described (Abu Ubeid, A., Zhao, L., Wang, Y., and Hantash, B. M. (2009) J Invest Dermatol 129, 2242-2249).
The kinetics and mode of inhibition for P16-18 (SEQ ID NO: 1, 2 and 3 respectively) and HQ was determined using a standard assay (Pomerantz, S. H. (1966) J Biol Chem 241, 161-168). As illustrated by Lineweaver-Burk plots shown in FIG. 3, the Vₘₐₓ was independent of […] for HQ and all 3 octapeptides, whereas the Kₘ was altered.
RRYWYWRR (Synthetic octapeptide) [P18 peptide]: the affinity corresponds to a Ki of 179 µM. Same read-out and setting: to RRRYWYYR (Synthetic octapeptide) [P17 peptide] belongs 190 µM; to RRWWRRYY (Synthetic octapeptide) [P16 peptide], 167 µM.

The record behind these values is patent publication US20150118286A1 (ELIXIR INSTITUTE OF REGENERATIVE MEDICINE, published 2015).
